Source: patent US20190071513A1 (APTEVO RESEARCH AND DEVELOPMENT, published 2019)
Like-named read-outs stand apart in the source and are kept apart here.

How the values were obtained:
[1] = biological target: T1, human CD123 on the surface of CD123(+) cell lines (human, UniProt P26951 19-378); assay: cell-based or functional assay
[2] = biological target: human CD123 on the surface of CD123(+) cell lines (human) (UniProt P26951); assay: flow cytometry competition on Molm-13 cells; competitor PE-conjugated 7G3 at 13 nM
[3] = biological target: human CD123 on the surface of CD123(+) cell lines (human) (UniProt P26951); assay: cell-based or functional assay
[4] = biological target: human CD123 on the surface of CD123(+) cell lines (human) (UniProt P26951); assay: flow cytometry competition on Molm-13 cells: preincubation with unlabeled 7G3, then PE-conjugated 7G3 at 13 nM as the competitor that is read
[5] = biological target: T2, CD3ε on Jurkat cells and human T-cells (human, UniProt P07766 23-207); assay: flow cytometry on CD3ε(+) Jurkat cells, PE anti-human Fc secondary
T2 construct: whole, on cells; on cells CD3ε stands in the TCR/CD3 complex; also called CD3 epsilon; CD3ε(+) Jurkat cell line
Experimental: Flow cytometry was used to quantitate binding of constructed molecules to the CD3ε expressing Jurkat cell line. Binding studies on the CD3ε(+) Jurkat cell line were performed by standard flow cytometry-based staining procedures. […] Signal from bound molecules was detected using a LSR-II™ flow cytometer (BD Biosciences) and analyzed by FlowJo flow cytometry analysis software. Mean fluorescence intensity (MFI) of bound molecules on cells was determined after exclusion of doublets.

[6] = biological target: T3, human CD123 ectodomain with Avi-3xFLAG-His affinity tag (TRI032) (human); assay: SPR (Biacore T200), bispecific captured by anti-Fc, monomeric CD123 ECD as analyte, 25 C, 1:1 model
T3 construct: also called CD123 ECD; recombinant monomeric CD123 ectodomain (ECD)
T3 chain: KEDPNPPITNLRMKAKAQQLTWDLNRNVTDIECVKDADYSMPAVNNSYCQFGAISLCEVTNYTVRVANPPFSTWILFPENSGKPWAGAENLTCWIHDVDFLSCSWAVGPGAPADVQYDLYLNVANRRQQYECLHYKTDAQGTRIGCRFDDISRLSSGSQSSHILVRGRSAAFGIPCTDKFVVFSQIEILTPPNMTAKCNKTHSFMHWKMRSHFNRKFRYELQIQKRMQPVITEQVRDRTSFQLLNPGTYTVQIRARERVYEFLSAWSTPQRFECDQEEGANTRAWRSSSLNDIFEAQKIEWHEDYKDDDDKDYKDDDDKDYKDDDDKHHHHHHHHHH
Experimental: SPR binding studies of bispecific molecules to recombinant monomeric CD123 ectodomain (ECD) were conducted at 25° C. in HBS-EP+ buffer. […] The bispecific molecules at 200 nM in HBS-EP+ buffer were captured by the immobilized anti-Fc F(ab′)2 fragment at a flow rate of 30 μL/min for 120 sec to reach a stable 2000 RU response. […] Optimal regeneration was achieved by one injection of 10 mM glycine (pH 1.7) at a flow rate of 30 μL/min for 15 sec followed by one injection of 50 mM NaOH at 30 μL/min for 15 sec. A two minute stabilization with HBS-EP+ buffer was completed before the subsequent run.
Sensorgrams obtained from kinetic SPR measurements were analyzed by the double subtraction method. The signal from the reference flow cell was subtracted from the analyte binding response obtained from flow cells with immobilized or captured ligands. Buffer reference responses were then averaged from multiple injections. […] All sensorgrams were fitted using a simple one-to-one binding model.

[7] = biological target: T4, Full-length cynomolgus CD123, isoform 1 (TRI114), on transfected cells (cynomolgus monkey); assay: flow cytometry on CHO cells stably expressing cynomolgus CD123, PE anti-human IgG Fc secondary antibody, MFI; table under the graph
T4 construct: also called cyno CD123; CHO cells stably expressing cynomolgus CD123 protein
T4 chain: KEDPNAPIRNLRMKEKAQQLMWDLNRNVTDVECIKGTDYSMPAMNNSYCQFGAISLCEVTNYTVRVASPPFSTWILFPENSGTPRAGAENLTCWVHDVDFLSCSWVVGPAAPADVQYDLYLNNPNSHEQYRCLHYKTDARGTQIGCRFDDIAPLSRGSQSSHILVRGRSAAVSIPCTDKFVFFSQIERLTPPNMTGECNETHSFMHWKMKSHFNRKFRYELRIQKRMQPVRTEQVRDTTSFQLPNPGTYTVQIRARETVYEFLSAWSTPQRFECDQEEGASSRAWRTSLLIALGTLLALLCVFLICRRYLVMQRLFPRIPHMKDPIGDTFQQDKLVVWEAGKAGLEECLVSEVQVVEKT
Experimental: (§1) The Molm-13 cell line was obtained from DSMZ (Braunschweig, Germany). The Molm-13 cell line was cultured according to the provided protocols. Chinese hamster ovary (CHO) cells stably expressing the full length cynomolgus CD123 protein were developed in-house. […] Signal from bound molecules was detected using a LSR-II™ flow cytometer (BD Biosciences) and analyzed by FlowJo flow cytometry analysis software. Mean fluorescence intensity (MFI) of bound molecules on cells was determined after exclusion of doublets. Nonlinear regression analysis to determine EC50 values was performed in GraphPad Prism 7® graphing and statistics software.

[8] = biological target: T1, human CD123 on the surface of CD123(+) …; assay: flow cytometry on CD123(+) Molm-13 cells, PE anti-human IgG Fc secondary antibody, MFI; table under the graph
Experimental: as §1

[9] = biological target: T1, human CD123 on the surface of CD123(+) …; assay: as above; remark: listed apart in the source
Experimental: as §1

T1 sequence (P26951 19-378 limits assumed, form in doubt): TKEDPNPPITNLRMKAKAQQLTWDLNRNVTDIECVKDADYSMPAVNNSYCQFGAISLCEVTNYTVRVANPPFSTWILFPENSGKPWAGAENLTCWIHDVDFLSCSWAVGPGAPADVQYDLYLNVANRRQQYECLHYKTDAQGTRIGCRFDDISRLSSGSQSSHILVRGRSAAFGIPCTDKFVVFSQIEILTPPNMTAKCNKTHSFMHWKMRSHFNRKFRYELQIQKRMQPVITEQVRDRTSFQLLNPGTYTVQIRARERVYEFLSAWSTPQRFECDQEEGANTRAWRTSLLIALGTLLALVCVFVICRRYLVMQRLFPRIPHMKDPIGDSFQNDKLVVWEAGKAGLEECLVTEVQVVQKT
human CD123 on the surface of CD123(+) cell lines (human), sequence (P26951 19-378 limits assumed, form in doubt): as above
T2 sequence (P07766 23-207): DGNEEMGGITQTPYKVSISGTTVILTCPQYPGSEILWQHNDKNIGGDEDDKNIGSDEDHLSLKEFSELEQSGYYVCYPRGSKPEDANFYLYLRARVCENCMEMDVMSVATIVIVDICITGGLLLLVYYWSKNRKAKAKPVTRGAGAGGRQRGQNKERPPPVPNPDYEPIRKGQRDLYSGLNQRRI

B1: TRI168 (bispecific antibody)
chain 1: QAVVTQEPSLTVSPGGTVTLTCRSSTGAVTTSNYANWVQQKPGQAPRGLIGGTNKRAPWTPARFSGSLLGGKAALTITGAQAEDEADYYCALWYSNLWVFGGGTKLTVLGGGGSGGGGEVQLVQSGAELKKPGASVKVSCKASGYTFTDYYMKWVRQAPGQGLEWIGDIIPSNGATFYNQKFKGRVTITVDKSTSTAYMELSSLRSEDTAVYYCARSHLLRASWFAYWGQGTLVTVSSGGCGGGEVAALEKEVAALEKEVAALEKEVAALEK
chain 2: DFVMTQSPDSLAVSLGERVTMSCKSSQSLLNSGNQKNYLTWYQQKPGQPPKLLIYWASTRESGVPDRFSGSGSGTDFTLTISSLQAEDVAVYYCQNDYSYPYTFGQGTKLEIKGGGSGGGGEVQLVESGGGLVQPGGSLRLSCAASGFTFSTYAMNWVRQAPGKGLEWVGRIRSKYNNYATYYADSVKDRFTISRDDSKNSLYLQMNSLKTEDTAVYYCVRHGNFGNSYVSWFAYWGQGTLVTVSSGGCGGGKVAALKEKVAALKEKVAALKEKVAALKESSSLNDIFEAQKIEWHEDYKDDDDKDYKDDDDKDYKDDDDKHHHHHHHHHH
EC50 of T-cell activation (CD4+ and CD8+ CD25+ CD69+) with Molm-13 cells, 24 hours [1]: < 10 pM | EC50 of T-cell proliferation (CFSE) with Molm-13 cells, 4 days [1]: 2 to 5 pM

B2: anti-human CD123 monoclonal antibody 7G3 (antibody, from another filing, V domains shown)
VH: EVQLQQSGPELVKPGASVKMSCKASGYTFTDYYMKWVKQSHGKSLEWIGDIIPSNGATFYNQKFKGKATLTVDRSSSTAYMHLNSLTSEDSAVYYCTRSHLLRASWFAYWGQGTLVTVSA
VL: DFVMTQSPSSLTVTAGEKVTMSCKSSQSLLNSGNQKNYLTWYLQKPGQPPKLLIYWASTRESGVPDRFTGSGSGTDFTLTISSVQAEDLAVYYCQNDYSYPYTFGGGTKLEIKR
percent inhibition of binding of PE-conjugated 7G3 [2]: 100% | IL-3 induced proliferation of TF-1 cells (CyQUANT), 4 days [3]: 100% | IC50 (read off the curve) [4]: 2 nM

B3: TSC266 (bispecific antibody)
chain: DIQMTQSPSAMSASVGDRVTITCRASKSISKYLAWFQQKPGKVPKLRIHSGSTLQSGVPSRFSGSGSGTEFTLTISSLQPEDFATYYCQQHIEYPWTFGQGTKVEIKRGGGGSGGGGSGGGGSQVQLVQSGAEVKKPGASVKVSCKASGYTFTDYYMHWVRQAPGQGLEWMGYFNPYNDYTRYAQKFQGRVTMTRDTSISTAYMELSSLRSDDTAVYYCARSDGYYDAMDYWGQGTTVTVSSSEPKSSDKTHTCPPCPAPEAAGAPSVFLFPPKPKDTLMISRTPEVTCVVVDVSHEDPEVKFNWYVDGVEVHNAKTKPREEQYNSTYRVVSVLTVLHQDWLNGKAYACAVSNKALPAPIEKTISKAKGQPREPQVYTLPPSRDELTKNQVSLTCLVKGFYPSDIAVEWESNGQPENNYKTTPPVLDSDGSFFLYSKLTVDKSRWQQGNVFSCSVMHEALHNHYTQKSLSLSPGQRHNNSSLNTGTQMAGHSPNSQVQLVESGGGVVQPGRSLRLSCKASGYTFTRSTMHWVRQAPGQGLEWIGYINPSSAYTNYNQKFKDRFTISADKSKSTAFLQMDSLRPEDTGVYFCARPQVHYDYNGFPYWGQGTPVTVSSGGGGSGGGGSGGGGSAQDIQMTQSPSSLSASVGDRVTMTCSASSSVSYMNWYQQKPGKAPKRWIYDSSKLASGVPARFSGSGSGTDYTLTISSLQPEDFATYYCQQWSRNPPTFGGGTKLQITSSS
notes: anti-PSMA scFv - Fc - anti-CD3 scFv (CRIS-7 derived) at the C-terminus; also called anti-PSMA×CRIS-7 scFv-Fc-scFv
EC50 [5]: 2 nM | fold reduction of binding against DRA240 [5]: ~10 fold

B4: TRI129 (bispecific antibody)
chain: EVQLLESGGGLVQPGGSLRLSCAASGFTFSSYGMSWVRQAPGKGLEGVSAISGSGGSTYYADSVKGRFTISRDNSKNTLYLQMNSLRAEDTAVYYCAKEKLRYFDWLSDAFDIWGQGTMVTVSSGGGGSGGGGSGGGGSGGGGSDIVMTQSPDSLAVSLGERATINCKSSHSVLYSSNNKNYLAWYQQKPGQPPKLLIYWASTRESGVPDRFSGSGSGTDFTLTISSLQAEDVAVYYCQQYYSTPPTTFGGGTKVEIKSSSEPKSSDKTHTCPPCPAPEAAGAPSVFLFPPKPKDTLMISRTPEVTCVVVDVSHEDPEVKFNWYVDGVEVHNAKTKPREEQYNSTYRVVSVLTVLHQDWLNGKEYKCAVSNKALPAPIEKTISKAKGQPREPQVYTLPPSRDELTKNQVSLTCLVKGFYPSDIAVEWESNGQPENNYKTTPPVLDSDGSFFLYSKLTVDKSRWQQGNVFSCSVMHEALHNHYTQKSLSLSPGSGGGGSGGGGSGGGGSPSQVQLVQSGPEVKKPGSSVKVSCKASGYTFSRSTMHWVRQAPGQGLEWIGYINPSSAYTNYNQKFKDRVTITADKSTSTAYMELSSLRSEDTAVYYCARPQVHYDYNGFPYWGQGTLVTVSSGGGGSGGGGSGGGGSGGGGSDIQMTQSPSTLSASVGDRVTMTCSASSSVSYMNWYQQKPGKAPKRWIYDSSKLASGVPSRFSGSGSGTDYTLTISSLQPDDFATYYCQQWSRNPPTFGGGTKVEIKRS
notes: scFv-Fc-scFv, anti-CD123 × anti-CD3ε; dimer; also called OMT1 VHVL × TSC456 scFv-Fc-scFv
Kd [6]: 11.4 nM | koff [6]: 0.00205 s⁻¹ | kon [6]: 179000 M⁻¹ s⁻¹ | EC50 [7]: 8.77 nM | EC50 [8]: 5.33 nM | EC50 [9]: 9.69 nM
